Source: paper PMC3839849 (2013)

Target: CaV1.2 IQ domain (Homo sapiens, UniProt Q13936, Ca2+)
Experiment: ITC

CaV1.2 IQ domain, sequence (Q13936 1665-1685): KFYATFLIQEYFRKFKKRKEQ

B1: CaBP1 C-lobe (protein)
chain: ADMIGVKELRDAFREFDTNGDGEISTSELREAMRKLLGHQVGHRDIEEIIRDVDLNGDGRVDFEEFVRMMSR
- Kd: 10.5 nM
